Experimental data: the supplement of paper PMC10126150
± gives the standard deviation of the averaged measurements.

test system: ATP; test: switch fluorescence ratio, 500 uM ATP over buffer (Cy3 cluster intensity, sum of 5 cycles each) (fold (ratio)); higher = stronger signal-on switching upon ATP binding; sequences stand for … in TCGTCGGCAGCGTCAGATGTGTATAAGAGACAGTTTTTTTTTTTTTTTTTTTTTTTTT…TC; details: aptamer strand: ATP DNA aptamer (quencher-CACCTGGGGGAGTATTGCGGAGGAAGG + anchor), 100 nM annealed; ATP concentration: 500 uM
Outline: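 Clusters with intensities outside 100-1000 RFU were excluded. The remaining Cy3-labelled switching-strand clusters on a modified Illumina MiSeq flow-cell had been annealed to 100 nM quencher-labelled ATP aptamer and imaged in selection buffer, then after 15 min with 500 uM ATP at 22 °C, for five cycles separated by NaOH stripping and re-annealing. The fluorescence ratio, averaged per switch-domain sequence, is each cluster's summed target-cycle Cy3 intensity over its summed buffer-cycle Cy3 intensity.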
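Note: ATP exposure 15 min at 22 °C before imaging.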

CGTGCTTTCT and AATAATTAAA are within error of each other in switch fluorescence ratio: 0.999 ± 0.029 for the first, 0.9861 ± 0.0097 for the second.

Compared with ATATGCTTTC, ACGTACCGGC is higher in switch fluorescence ratio: 0.994 ± 0.011 for the first, 1.31 ± 0.075 for the second.

TGCGGGTTAG and AGCCTCGGTT are within error of each other in switch fluorescence ratio: 0.984 ± 0.032 for the first, 1.0014 ± 0.00098 for the second.

Compared with TTAAAGTCGG, CCCACCGGGC is higher in switch fluorescence ratio: 1 ± 0.024 for the first, 1.05 ± 0.022 for the second.

TATTACTTTG and AGGTTGAAG are within error of each other in switch fluorescence ratio: 1.01 ± 0.024 for the first, 0.976 ± 0.034 for the second.

AGAAGGCGGG and AGGAAATTTT are within error of each other in switch fluorescence ratio: 0.985 ± 0.029 for the first, 1.01 ± 0.025 for the second.

Compared with TACGCTATAA, TGGTAGGTA is lower in switch fluorescence ratio: 2.824 ± 0.0042 for the first, 0.987 ± 0.013 for the second.

First: TTACTAGATG
Second: AATTTGCTAA
The switch fluorescence ratio of the first is higher: 1.02 ± 0.021 for the first, 0.981 ± 0.013 for the second.

TGTAGTAACG and GATGGGCCGG are within error of each other in switch fluorescence ratio: 0.982 ± 0.012 for the first, 1 ± 0.039 for the second.

Compared with GGGGGGCCAG, TGCAGCATCA is higher in switch fluorescence ratio: 1.01 ± 0.04 for the first, 1.11 ± 0.012 for the second.

GTGAAAGTTT and GTGTGTTGGG are within error of each other in switch fluorescence ratio: 0.998 ± 0.062 for the first, 0.984 ± 0.026 for the second.

Going from CACGGATTGC to GATAAATGTT, the switch fluorescence ratio falls from 1.18 ± 0.039 to 0.985 ± 0.01.

GATCGGGGAC and TAAAACCAGT are within error of each other in switch fluorescence ratio: 1.03 ± 0.027 for the first, 1.04 ± 0.035 for the second.

AAACGTGGTG and CGGTCGCTGG are within error of each other in switch fluorescence ratio: 1 ± 0.038 for the first, 0.991 ± 0.026 for the second.

CTGTAAGGTG and TAGTTGGTTG are within error of each other in switch fluorescence ratio: 1.83 ± 1 for the first, 0.974 ± 0.027 for the second.

GCCAGTCTGG and TGTTCTATAT are within error of each other in switch fluorescence ratio: 0.987 ± 0.025 for the first, 1.01 ± 0.05 for the second.

TTAGCGGTAT and GATTTTAATA are within error of each other in switch fluorescence ratio: 1.08 ± 0.087 for the first, 1.02 ± 0.016 for the second.

Going from ACGGCACTCT to TTCCTTGTAG, the switch fluorescence ratio falls from 1.55 ± 0.0028 to 1.02 ± 0.017.

GATAAATAAA and CGGTGTATTC are within error of each other in switch fluorescence ratio: 1 ± 0.02 for the first, 0.988 ± 0.011 for the second.

AGTTTATTAC and ACCAATGTTC are within error of each other in switch fluorescence ratio: 1.47 ± 0.68 for the first, 1.03 ± 0.033 for the second.

TGGGGGAACT and CTTGTAAGAA are within error of each other in switch fluorescence ratio: 0.996 ± 0.019 for the first, 1.02 ± 0.05 for the second.

TTGGGCCGGG and TAGTGCCGGT are within error of each other in switch fluorescence ratio: 0.991 ± 0.02 for the first, 0.993 ± 0.016 for the second.

Compared with AAGTGATTGG, GGCTTTTACT is higher in switch fluorescence ratio: 0.973 ± 0.011 for the first, 1.04 ± 0.019 for the second.

First: CTGGTCGCTG
Second: CCAAGGACAC
The switch fluorescence ratio of the first is lower: 1.01 ± 0.046 for the first, 1.1498 ± 0.001 for the second.

First: GGAGAGGTTG
Second: CACACAAATT
The switch fluorescence ratio of the first is lower: 0.971 ± 0.021 for the first, 1.18 ± 0.15 for the second.

GCTGGGGGGT and AGCTGTACGG are within error of each other in switch fluorescence ratio: 1 ± 0.044 for the first, 1.029 ± 0.0084 for the second.

TTTAATTTAG and CGGAGGTTTC are the same in switch fluorescence ratio: 1.02 ± 0.024 for the first, 1.02 ± 0.03 for the second.

GAGCGGGTTG and AGAGGGAGAT are within error of each other in switch fluorescence ratio: 0.9835 ± 0.0056 for the first, 0.9876 ± 0.0098 for the second.

GAAGGCAAGG and ACAGTTAAGT are within error of each other in switch fluorescence ratio: 1.07 ± 0.011 for the first, 1.04 ± 0.039 for the second.

GGAAAGTTGG and TAAGGGGAGC are within error of each other in switch fluorescence ratio: 0.996 ± 0.012 for the first, 1.01 ± 0.03 for the second.

Going from GAATGACCCG to GTAATTTTGC, the switch fluorescence ratio falls from 1.11 ± 0.012 to 0.989 ± 0.059.

TTTGATTTTG and AGGGTTGGTA are within error of each other in switch fluorescence ratio: 0.989 ± 0.016 for the first, 1.01 ± 0.011 for the second.

ATGGGGGGTC and TGAAGTGGGG are within error of each other in switch fluorescence ratio: 0.985 ± 0.041 for the first, 0.954 ± 0.016 for the second.

CCGGTGAGGG and ACTCGGGGTG are within error of each other in switch fluorescence ratio: 0.999 ± 0.05 for the first, 0.998 ± 0.025 for the second.

TTTGTTTTCT and ATTTTGGGTC are within error of each other in switch fluorescence ratio: 1.01 ± 0.032 for the first, 0.991 ± 0.047 for the second.

TTAATAGTGG and TATAGTTGTG are within error of each other in switch fluorescence ratio: 1.03 ± 0.073 for the first, 0.965 ± 0.025 for the second.

CGATATTGGC and GCGAGGAGTA are within error of each other in switch fluorescence ratio: 0.985 ± 0.083 for the first, 1.01 ± 0.024 for the second.

CGGTGGTTTG and CCAGACACAG are within error of each other in switch fluorescence ratio: 0.996 ± 0.026 for the first, 0.9849 ± 0.002 for the second.

First: AAGTTAATGT
Second: ATTGAAGCCT
The switch fluorescence ratio of the first is lower: 1 ± 0.022 for the first, 1.15 ± 0.013 for the second.

Going from AAAGTGTGCT to AATTCCTACG, the switch fluorescence ratio rises from 1.01 ± 0.024 to 2.571 ± 0.02.

Going from ATGGGCCCAT to TGCTAAAGGT, the switch fluorescence ratio falls from 1.01 ± 0.011 to 0.9836 ± 0.0095.

TTTGGGCGGT and TACTGTGTTA are within error of each other in switch fluorescence ratio: 1.04 ± 0.12 for the first, 0.979 ± 0.026 for the second.

First: TTGCTCGTCG
Second: TTGTGTGGTG
The switch fluorescence ratio of the first is higher: 1.04 ± 0.0046 for the first, 0.98 ± 0.011 for the second.

TTGTGGGGGA and TAAAGGGTG are within error of each other in switch fluorescence ratio: 1.02 ± 0.046 for the first, 1.08 ± 0.037 for the second.

First: AGTTGTACTA
Second: TTTGAGTTT
The switch fluorescence ratio of the first is lower: 0.9633 ± 0.0046 for the first, 0.981 ± 0.012 for the second.

Compared with TCACGGTGTC, TTTGTATGAG is lower in switch fluorescence ratio: 1.11 ± 0.026 for the first, 1.03 ± 0.025 for the second.

GAGTAGGGGT and GTGCTTTTTT are within error of each other in switch fluorescence ratio: 1.01 ± 0.022 for the first, 0.993 ± 0.013 for the second.

Going from TTTTACTTAC to TTGGTGTGTA, the switch fluorescence ratio falls from 1.25 ± 0.059 to 1.002 ± 0.0089.

CGTCTTAGGG and GTAGTGGCAG are within error of each other in switch fluorescence ratio: 0.966 ± 0.016 for the first, 0.992 ± 0.049 for the second.

First: CTGTGCTAGG
Second: AACAGTTGTG
The switch fluorescence ratio of the first is higher: 1.01 ± 0.011 for the first, 0.976 ± 0.017 for the second.

Compared with GGCAGACGGT, AGGTGTTAGC is lower in switch fluorescence ratio: 1.006 ± 0.0016 for the first, 0.955 ± 0.046 for the second.

CATGGATTAA and CTTATATATG are within error of each other in switch fluorescence ratio: 1 ± 0.011 for the first, 0.987 ± 0.017 for the second.

Compared with GGTGTGATGG, TGGGAGCAGG is higher in switch fluorescence ratio: 0.9512 ± 0.0085 for the first, 1.05 ± 0.079 for the second.

Going from ACTTTGGGTT to CCTCGCGGGG, the switch fluorescence ratio rises from 1.01 ± 0.023 to 1.08 ± 0.032.

First: CCTCGGTATG
Second: GATGACTTTT
The switch fluorescence ratio of the first is higher: 1.24 ± 0.025 for the first, 1 ± 0.023 for the second.

ACATAAGAGG and GAGTCAGGTA are within error of each other in switch fluorescence ratio: 1.05 ± 0.013 for the first, 1.01 ± 0.029 for the second.

TAGAAAGCCT and TCGGAGTGCT are within error of each other in switch fluorescence ratio: 1.06 ± 0.045 for the first, 1.04 ± 0.042 for the second.

First: TAGGAGCAGG
Second: CGATTTTTTC
The switch fluorescence ratio of the first is higher: 1.09 ± 0.021 for the first, 0.9774 ± 0.003 for the second.

GGGCATCGGG and GCTGAGGTGA are within error of each other in switch fluorescence ratio: 0.991 ± 0.013 for the first, 1.02 ± 0.042 for the second.

GTGAATGGGG and CTGGGGGGTA are within error of each other in switch fluorescence ratio: 0.969 ± 0.042 for the first, 0.997 ± 0.028 for the second.

First: TTCGGAGCGG
Second: AAGTAGTTAC
The switch fluorescence ratio of the first is higher: 1.34 ± 0.24 for the first, 1.05 ± 0.042 for the second.

GTCATTGATT and CTAGTTGATG are within error of each other in switch fluorescence ratio: 1.01 ± 0.011 for the first, 0.991 ± 0.022 for the second.

Going from TCAGGTGTGA to CGCCCCGTCA, the switch fluorescence ratio falls from 1.27 ± 0.025 to 0.954 ± 0.036.

Compared with TAGGGGTCTC, ATCGTATGTA is lower in switch fluorescence ratio: 1.07 ± 0.038 for the first, 0.9708 ± 0.0055 for the second.

ATCGGGGTGG and ATATGAACGA are within error of each other in switch fluorescence ratio: 1 ± 0.071 for the first, 1.021 ± 0.0066 for the second.

AGGTTACCGG and GAGGCTTCTA are within error of each other in switch fluorescence ratio: 0.987 ± 0.019 for the first, 1.02 ± 0.036 for the second.

TGTTCCGGGT and TTTCCAAACA are within error of each other in switch fluorescence ratio: 0.999 ± 0.048 for the first, 1.01 ± 0.014 for the second.

First: TAGATAGCTT
Second: TCTCGCGGGA
The switch fluorescence ratio of the first is higher: 1.0112 ± 0.001 for the first, 0.97 ± 0.023 for the second.

CTTGTATAGT and CAGTGGAGGA are within error of each other in switch fluorescence ratio: 0.9947 ± 0.0062 for the first, 1 ± 0.024 for the second.

TAACGTAGGA and GAGGTCGTAA are within error of each other in switch fluorescence ratio: 1.07 ± 0.031 for the first, 1.05 ± 0.051 for the second.

TATGGGGGGC and TCGGGGGTGA are within error of each other in switch fluorescence ratio: 0.983 ± 0.047 for the first, 1 ± 0.021 for the second.

First: ACAGTCTGAC
Second: TAGGCGGAGC
The switch fluorescence ratio of the first is lower: 1.0082 ± 0.00053 for the first, 1.033 ± 0.0063 for the second.

CGGGGTTGAC and TTGGATACCT are within error of each other in switch fluorescence ratio: 0.9924 ± 0.0098 for the first, 1.05 ± 0.13 for the second.

GCTATAAGTG and ATTTAAGGTA are within error of each other in switch fluorescence ratio: 0.969 ± 0.027 for the first, 1.01 ± 0.024 for the second.

TTACTGAGGT and TTCCAAGGGA are within error of each other in switch fluorescence ratio: 0.992 ± 0.017 for the first, 1 ± 0.029 for the second.

ACACGGTCTA and TTACAGGTTC are within error of each other in switch fluorescence ratio: 1.01 ± 0.04 for the first, 1.031 ± 0.0019 for the second.

GATGGGTATG and GAATCATTTT are within error of each other in switch fluorescence ratio: 0.995 ± 0.01 for the first, 1.02 ± 0.036 for the second.

GAGGTACCGC and ATTAAAGTGC are within error of each other in switch fluorescence ratio: 1.05 ± 0.029 for the first, 0.999 ± 0.027 for the second.

In the case of TCGATCCTGA, the switch fluorescence ratio is reported as 0.998 ± 0.032.
